According to patent publication US20230340069A1:

Legend:
[1] = target: Polyclonal human IgG Gammanorm (human); test: Fc binding protein coupled to Praesto Pure45 agarose beads; polyclonal human IgG Gammanorm (2.2 mg/ml) loaded; mass of hIgG injected at 10% breakthrough, 6 min residence time
[2] = target: human IgG1; test: ELISA, IgG1 antibody coated on plate, detection with Strep-Tactin-HRP

| Substance | dynamic binding capacity [1] | Kd [2] |
| --- | --- | --- |
| R PROTEIN A | 37.4 mg/mL | – |
| Protein A domain Z | – | 3.4 nM |
